The assay concerns the target human PACRG full-length short isoform (PACRG^FL, 257 a.a.) (human, UniProt Q96M98-2 1-257). Briefly: cross-linking.

B1: human MEIG1 (His6 tag cleaved) (natural protein)
chain: MASSDVKPKSVSHAKKWSEEIENLYRFQQAGYRDETEYRQVKQVSMVDRWPETGYVKKLQRRDNTFYYYNKQRECDDKEVHKVKIYAY
For the molecule B1, the binding result is “binds”.
